# B1: TPR t1 (parent)
# chain: GACCAAUCUGCCCUCAGAGCUCGAGAACAUCUUCGGAUGCAGAGGAGGCAGGCUUCGGUGGCGCGAUAGCGCCAACGUCCUCAACCUCCAAUGCAUCCCACCACAUGAUGAUGCCUGAAGAGCCUUGGUUUUUUG
# Variants of: B1
# Experiment: polymerase ribozyme fitness, log enrichment relative to wild type (log ratio); higher = more active; in vitro selection for triplet polymerase activity
# Procedure, shortened: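 Mutant libraries for each subunit of a heterodimeric triplet polymerase ribozyme were made by PCR and then transcribed. Each library underwent one round of in vitro selection in triplicate: annealing with a biotinylated primer, the partner subunit and triplets, frozen incubation at −7 °C, gel excision of extended constructs, streptavidin-bead capture and RT-PCR. Input and output libraries were Illumina-sequenced, and only genotypes with ≥10 input reads and ≥1 read per output were kept. Fitness is the logarithm, base 2, of genotype enrichment over wild-type enrichment, computed from inverse-variance-weighted replicate averages.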
row,Variant,polymerase ribozyme fitness (log ratio)
1,C56A C104A A105U G110A,-7.24
2,C56A C104G A118G C124G,-5.79
3,C56A C104U U106A U109A,-5.35
4,C56A C115U,-1.67
5,C56A C123A,0.85
6,C56A G58C C62U C101A C104U,-1.18
7,C56A G58C C114U,-2.47
8,C56A G60A C101A,-1.49
9,C56A G61A A111G U125C,-2.99
10,C56A G61C C62U C72G C89U,-0.49
11,C56A G63A G93A A100C C124U,-4.2
12,C56A G63C C102A,-4.29
13,C56A G69A,-3.3
14,C56A G69C C79U G113U G117A,-5.4
15,C56A G71A,-3.71
16,C56A G71C,-4.4
17,C56A G71U G122A,-2.05
18,C56A G71U U81C A111U C115U,-6.9
19,C56A G93A,-0.661
20,C56A G93C,-1.88
21,C56A G113A,-0.455

row,Variant,polymerase ribozyme fitness (log ratio)
1,C56A G120C,0.484
2,C56A G128U,-2.53
3,C56A U59C U87C U112A,0.408
4,C56A U87A U106A,-0.176
5,C56A U87G G113U,-3.92
6,C56A U96A,-1.63
7,C56A U106G G110C,-5.41
8,C56A U112A G120A G135U,-2.22
9,C56A U112G,-0.994
10,C56A U129G,-2.29
11,C56A U132A,0.197
12,C56G A66C,-1.08
13,C56G A68G,-3.1
14,C56G A68G C73U A95G,-3.3
15,C56G A95G,-1.22
16,C56G A100U,-0.785
17,C56G A111C,-0.855
18,C56G A111G,0.245
19,C56G A121U,1.73
20,C56G C62U U106A G110U,-0.758
21,C56G C64A U106C C114U,-6.98

row,Variant,polymerase ribozyme fitness (log ratio)
1,C56G C64U C80A,-2.96
2,C56G C70A A83G U96C G120A,-4.37
3,C56G C70U U96G C101U A111U,-5.15
4,C56G C72A,-2.48
5,C56G C72G U87G C98U,-1.99
6,C56G C72U C88U U106A U133A,-1.24
7,C56G C72U C124U,-0.654
8,C56G C72U U130A,-1.31
9,C56G C73U,-0.89
10,C56G C86A,-1.6
11,C56G C86U U112A A118G A119G,1.32
12,C56G C88A C115U A119G,1.4
13,C56G C88U,-0.184
14,C56G C89A,-2.22
15,C56G C101U,-0.0823
16,C56G C101U G120A,-0.227
17,C56G C114A,-2
18,C56G C123A,0.0294
19,C56G C123U,0.748
20,C56G G57U G63U,-3.14
21,C56G G60U,-1.44

row,Variant,polymerase ribozyme fitness (log ratio)
1,C56G G63A,-2.75
2,C56G G63C C114G,-5.3
3,C56G G63C C115A,-2.19
4,C56G G69A A119U,-3.54
5,C56G G69C A83C C104U,-5.43
6,C56G G69C U87C G110A,-5.42
7,C56G G71C,-3.19
8,C56G G71U,-3.27
9,C56G G77U C115G,-3.16
10,C56G G93A C115A C123U G128U,-4.6
11,C56G G110U G135C,-1.62
12,C56G G135U,-1.35
13,C56G U81A U87A,-1.8
14,C56G U87A C115U,-1.94
15,C56G U92C C123A,-1.13
16,C56G U112G,0.023
17,C56G U132C,-0.811
18,C56G U133A,-0.615
19,C56U A66U G69U C80A A121C U130A,-6.49
20,C56U A83C A121U G127U U133G,1.28
